# Experimental data reported in the nanobody polyreactivity screen of Harvey et al. (2022).
# Test: yeast display, Sf9 membrane polyspecificity reagent, FACS + sequencing; frameworks hold sequencing errors
# Method in brief: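 Nanobodies came from a synthetic yeast display library in Saccharomyces cerevisiae BJ5465, induced with galactose for 36–48 hours and stained for 1 hour at 4 °C with 10% biotinylated, detergent-solubilized Sf9 membrane reagent. Cells were enriched on streptavidin microbeads and then FACS-sorted, with low and high (top ~1%) gates set on anti-HA fluorescence for expression and streptavidin fluorescence for reagent binding. Each polyreactivity label reflects the gate a clone came from. Genes were amplified by colony PCR, sequenced by MiSeq 2 × 250 and filtered by CDR length.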
row,Sequence,polyreactivity (PSR sort gate)
1,QVQLVESGGGLVQAGGSLRLSCAASGSTFDVNTMGWYRQAPGKERELVAAISSSGGDTYYADSVKGRFTISRDNAKNTVYLQMNSLKPDDTAVYYCAARLGFYTYGYTSWYTVYYWGQGTQVTVSS,low polyreactivity
2,QVQLVESGGGLVQAGGSLRLSCAASGLTFEYYAMGWYRQAPGKERELVAAISRRGSTYYADSVKGRFTISRDNAKNTVYLQMNSLKPEDTAVYYCNAVYYWYKGDYWGQGTQVTVSS,high polyreactivity
3,QVQLVESAGGLVQAGGSLRLSCAASGYIFQYYAMGWYRQAPGKERELVAAITSGGSTYYADSVKGRFTISRDNAKNTVYLQMNSLKPEDTAVYYCAAHLLHYRGDYWGQGTQVTVSS,high polyreactivity
4,QVQLVESGGGLVQAGGSLRLSCAASGITFKYYAMGWYRQAPGKERELVADISWGGGSTYYADSVKGRFTISRDNAKNTVYLQMNSLKPEDTAVYYCAAEYSGSYYSFWMVYWGLGTQVTVSS,low polyreactivity
5,QVQLVESGGGLVQAGGSLRLSCAASGSIFSRNTMGWYRQAPGKERELVATITSGSNTNYADSVKGRFTISRDNAKNTVYLQMNSLKPEDTAVYYWGQGTQVTVSS,low polyreactivity
6,QVQLVESGGGLVQAGGSLRLSCAASGRIFYYNAIGWYRQAPGKERELVATITRAGGTYYADSVKGRFTISRDNAKNTVYLQMNSLKPEDTAVYYCAKRHPIVDDYKGDYWGQGTQVTVSS,low polyreactivity
7,QVQLVESGGGLVQAGGILRLSCAASGSTFYENAMGWYRQAPGKERELVAAITWSGGRTYYADSVKGRFTISRDNAKNTVYLQMNSLKPEDTAVYYCNARARSRKFYYWGQVTQVTVSS,high polyreactivity
8,QVQLVESGGGLVQAGGSLRLSCAASGYSFSYYAMGWSRQAPGKERELVAAISWSGGSTYYADSVKGRFTISRDNAKNTVYLQMNRLKPEDTAVYYCATEVVAYRRYSAYGYWGQGTQVTVSS,high polyreactivity
9,QVQLVESGGGLVQAGGSLRLSCAASGFTIHNYAMGWYRQAPGKERELVARITRSGGTTYYADSVKGRFTISRDNAKNTVYLQMNSLKPEDTAVYYCAARRYGYTSITWYDYWGQGTQVTVSS,high polyreactivity
10,QVQLVESGGGLVQAGGSLRLSCAASGRIFWVNVMGRYIQAPGKERELVPAITRGASTYADSVKGRFTISRDNAKNTVYLQMNSLKPEDTAVYYCAADTKRRSIRYDYWGEGTQVTVSS,high polyreactivity
11,QVQLVESVGGLVQAGGSLRLSCAASGSTSRFYDMGSYSQAPGKERELVAAITQSGGSTRYADSVKGRFTISRENAKNTVYLQLNSLKPEDTAVNYCAARVRGYSVTRTKPASIGGGSWGQGTQVTVSS,high polyreactivity
12,QVQLVESGGGLVQAGGSLRLSCAASGRIFEWNTMGWYRQAPGKEREVVATISWDGGSTYYADSVKGRFTISRDNAKNTVYLQMNSLIPEDTAVYYCNKSPLNFFRFRATYDYWGQGTQVTVSS,low polyreactivity
13,QVQLVESGGGLVQAGGSLRLSCAASGSTFWYNAMGWYRQAPGKERELVAAITTRGDSTYYADSVKGRFTISRDNAKNTVYLQMNSLKPEDTAVYYCAADWAWYSYDWYYWYDYWGQGTQVTVSS,high polyreactivity
14,QGQLVESGGGLFQAGASLRLSCAASGITFYDNAMGLYRQAPGKERELVAGISYDGDSTYADSVKGRFTISRDNAKNTVYLQMNSLKPEDTAVYYCAALCPYDWLWAGDYWGQGTQVTVSS,low polyreactivity
15,QVQLVESGGGLVQAGGSLRLSCAASGSIFTKYAMGWYRQAPGKERELVAAISSSGGSTYYADSVKGRFTISRDNAKNTVYLQMNSLKPEDTAVYYCAAEAVYYRSWRYYYWGQGTQVTVSS,high polyreactivity
16,QVQLVESGGGLDQAGGRLRLSCAASGRTYSVKSMGWYRQAPGKERELVAAITSGGSTYYADSVKGRFTISRDNAKNTVYLQMNSLKPEDTAVYYCNAVGRLRRSRLRMDYWGQGTQVTVSS,high polyreactivity
17,QVQLVESGGGLVQAGGSLRLSCAASGYTFYSYAMGWYRQAPGKERELFAAITESGARTYYADSVKGRFTISRDNAKNTVYLQMNSLKPEVTAVYYCAADYAWPLRVTGDYWGQGTQVTVSS,low polyreactivity
18,QVQLVESGGGLVQAGGSLRLSCAASGSTFRYNAMGWYRQAPGKEREVVAAISRIGGTTYADSVKGRFTISRDNAKNTVYFQMNSLKPEDTAVYYCARANWGYYGPEYGYWGQGTQVTVSS,high polyreactivity
19,QVQLVESGGGLVQAGGSLRLSCAASGSTFYANAMGWYRQAPGKERELVAAITRSGAGTYYADSVKGRFTISRDNAKNTVYLQMNSLKPEDTAVYYCNAGSSFWVSRIGYDYWGQGTQVTVSS,high polyreactivity
20,QVQLVESGGGLVQAGGSLRLSCAATGSTFYVNDMGWYRQAPGKERELVAAIDWTGGTTYYADSEKGRFTISRDNAKNTVYLQMNSLKPEDSAVYYCAVDDSTVDYDYWGQGTQVTVSS,low polyreactivity
21,QVQLVESGGVLVQAGGSLRLSCAASGLTIQTNAMGWYREAPVKERELVAAISRRGSSTYYADSVKGRFTISRDNAKNTVYLQMISLKPEDTAVYYCATGGVLYPYWRGKRYGYWGQGTQVTVSS,high polyreactivity
22,QVQLVESGGGLVQAGGSLRLSCAASGRTFVVNAMGWSRQAPGKERELVAAITRRGGITYYADSVKGRFTISRDNAKNTVYLQMNSLKPEDTAVYYCAADRSYYPDTRTTYGYNYWGQGTQVTVSS,low polyreactivity

row,Sequence,polyreactivity (PSR sort gate)
1,QVQLVESGGGLVQAGGSLRLSCAASGSTFQTNAMGWYRQAPGKERELVAAINSGGGTNYADSVKGRFTFSRDNAKYTVYLQMNSLKPEDSAVYYCAAAYFDFWGWLHDYWGQGTQVTVSS,low polyreactivity
2,QVQLVESGGGLVQEGGSLRLSCAASGIIFSRYAMGWYRPAPGKERELVAAITRSGGDTYYADSVKGRFTISRDNAKNTVYLQMNSLNPEDTAVYYCAAERTWYPWVATGYYWGQGTQVTVSS,low polyreactivity
3,QVQLVESGGGLVQAGGSLRLSCAASGNIIVFYAMGWYRQAPGKEREFVAAITSGGSTNYADSVKGRFTISRDNAKNTVYLQMNSLKPEDTAVYYCAGRQWFSHRRWGGSRYDYWGQGTQVTVSS,high polyreactivity
4,QVQLVESVGGLVQAGGSLRLSCAASGSIFEYYAMGWYRQAPGKERELVAAITRSGGSTYYADSVKGRFTISRDNAKNTVYLQMNSLKPEDTAVYYCAVRGYSSYTYDEYYVGYDYWGQGTQVTVSS,low polyreactivity
5,QVQLVESGGRLVQAGGSLRLSCAASGFTFLYYAMGWYRQAPGKERELVATITRTSRTYYADSVKGRFTISRDNAKNTVYLQMNSLKPEDTAVYYCAADTPYLRRRLGMDYWGQGTQVTVSS,high polyreactivity
6,QVQLVESGGGLVQAGGSLRLSCAASGFIFYRYTMGWYRQAPGKERELVAAITSAGSTYYADSVKGRFTISRDNAKNTVYLQMNSLKPEDTAVYYCNADSTWGGYGFDYWGQGTQVTVSS,low polyreactivity
7,QVQLVESGGGLVQAGGSLRLSCAASGIIFARNAMGWYRQAPGKERELVAAISSRSGSTYYADSVKGRFTISRDNAKNTVYVQMNSLKPEDTAVYYCNAVYAGRFGSHYWGQGTQVTVSS,high polyreactivity
8,QVQLVESAGGLVQAGGSLRLSCAASGFTFGDNAMGWYRQAPGKERELVAAITSSGSTNYADSVKGRFTISRDNAKNTVYLQMNSLKPEDTAVYYCNAEDSVDAPVYKDLGSEYDSWGQGTQVTVSS,low polyreactivity
9,QVQLVESGAGLVQAGGSLRLSCAASGTIFSGNAMGWYRQAPGKESELVAAISRSGGSTYYADSVKGRFTISRDNAKNTVSLQKNSLKPEDTAVYYCAAYRTHGPPRAIRFDYWGQGSQVTVSS,high polyreactivity
10,QVQLVESGGGLVQAGGSLRLSCAASGSIFLHNAMGWYRQAPGKERVLVAVITSRGGSTYYADSVKGRFTISRDNAKNPVYLQMNSLKPEDTAVYYCAAPAYHKRTSRGDYWGQGTQVTVSS,low polyreactivity
11,QVQLVESGGGLVQAGGSLRLSCAASGSIFGPYAMVWYRQAPGKERELVAAISSRGSSTYYADSVKGRFTISRDNAKNTVYLQMNSLKPEDTAVYYCAALYYVYGYDYWGQGTQVTVSS,high polyreactivity
12,QVQLVESGGGLVQAGGSLRLSCAASGRIFRDYAMGWYRQAPGKERELVAAIRSVGNTNYADSVKGRFTISRDNAKNTVYLQMNSLKPEDTAVYYCNRQGSYFSRQAIGDFRFDYWGQGTQVTVSS,low polyreactivity
13,QVQLVESGGGLVQAGGSLRLSCAASGRTFWYYTMGWYRQAPGKEREFVAAISYSAGNTYYADSVKGRFTISRDNAKNTVYLQMNSLKPEDTAVYYCAVQRGYRSNAYDYWGQGTQVTVSS,high polyreactivity
14,HVQLQESAGGLVQAGGSLRLSCAASGNISYSRNMGWYRQAPGKERELVAAIDRGAITYYADSVKGRFTISRDNATNTVYLQIYSLKPEDTAVYYCAAEYHDRWDHRYWGQGTHVTVSS,high polyreactivity
15,QVQLVESGGGLVQAGGSLRLSCAASGSIFGPYAMGWYRQAPGKERELVAGITRSVGSTYYADSVKGRFTISRDNAKNTVFLQMNSLKPEDTAVYYCNAKWLYSRWAGYDYWGQGTQVTVSS,low polyreactivity
16,QVQLVESGGGLVQAGGSLRLSCAASGSIFYHYAMGWSRQAPGKERELVAAITRSGGSTYYADSVKGRFTISRDNAKHTVYLQMNSLKPEDTAVYYCAKDPDSYNFLTSNWYDYWGQGTQVTVSS,low polyreactivity
17,QVQLVESGGGLVQAGGSLRLSCAASGRTCWSYAMGWYRQAPGKEREVVATITGRGGSTYYADSVKGRFTISRDNAKNTVYLQRNSLKPEDTAVYYCAVRSKYRRTFGSWGQGTQVTVSS,high polyreactivity
18,QVQLVESGGGLVQAGGSLRLSCAASGFIFEPYAMGWYRQEPGKERELVAAISNSDSTNYADSVKGLFTISRDNAKNTVYLQMNSLKAEDTAVYYCNADFSKSYDYWGQGTQVTVSS,low polyreactivity
19,QVQLVESGGGLVQAGGSLRLSCAASGFTLVNNAMGWYRQAPGKERELVAAISKRAGRTYYADSVKGRFTISRDNAKNTVYLQMNSLKPEDTAVYYCNAGKRVEYDYWGQGTQVTVSS,high polyreactivity
20,QVQRVESGGGLVQAGGSLRLSCAASGNTFTVNAMGWYRQAPGKERELVAAINYSGGSTYYADSVKGRFTISRDNAKNTVYLQKNSLKPEDTAVYYCAASPDELLYEMYYWGQGTQVTVSS,low polyreactivity
21,QVQLVESGGGLVQAGGSLRLSCASSGSTFYWNGMGWYRQAPGKERDLVADITWSGTSTNYADSVKGRFTISRDNAKNTVYLQMNSLKPEDTAVYYCAVSDFGLRDSLTIYDEYDYWGQGTQVTVSS,high polyreactivity
